Experimental data from patent US20030104443A1, “AFAP sequences, polypeptides, antibodies and methods” (University of West Virginia, priority 2001, published 2003).

How the values were obtained:
[1] = target: T1, recombinant PKCα (Homo sapiens, UniProt P17252); assay: In vitro PKC kinase assay; type: biochemical; settings: 10 μg rAFAP-110, 0.5 μg PKCα, radiolabeled ATP; FIG. 10A
T1 construct: purchased CalBiochem
Procedure: PKC kinase assays were carried out according to Current Protocols in Molecular Biology (Carter, 1997). Briefly, 10 μg rAFAP-110 purified as mentioned above was incubated at 30° C. for 30 min with 0.5 μg recombinant PKCα in reaction buffer (20 mM Tris, pH 7.5, 5 mM MgCl2, 0.2 mM CaCl2, 20 μg/ml phosphatidylserine, and 2 μg/ml diolein) to which 1 μCi [γ-^32P]ATP was added. Reactions were analyzed by SDS-PAGE.

[2] = test system: F-actin; assay: Actin binding assay (high-speed copelleting, 150,000×g)
Procedure: G-actin was polymerized to F-actin at 5 mM Tris-HCl, pH 8.0, 0.2 mM CaCl2, 0.5 mM DTT, 5 mM MgCl2, and 2 mM ATP at room temperature (RT) for 1 h. Different concentrations of rAFAP-110 were incubated with 2 μM F-actin in 5 mM MgCl2, 1 mM EGTA, 2 mM ATP, 50 mM KCl at RT for 30 min. The reactions were centrifuged at 150,000×g for 1 h at 4° C., and then both pellets and supernatants were collected and analyzed by SDS-PAGE gel.
(§1) Binding constants were derived from the sedimentation of rAFAP-110 by actin. Accordingly, rAFAP-110 in the pellet and supernatant correspond to the bound and free rAFAP-110, respectively. The sum of densities of rAFAP-110 bands in the supernatant and pellet corresponds to the total mass of rAFAP-110 in the sample. The data representing the bound rAFAP-110 as a function of free rAFAP-110 were fit by nonlinear least squares to both the Langmuir (B=BMAX/(1+Kd/F)) and […] 2 μM F-actin filaments and different concentrations of rAFAP-110 in 5 mM MgCl2, 1 mM EGTA, 2 mM ATP, and 50 mM KCl at 20,800×g for 30 min at 4° C. After the centrifugation, both supernatant and pellets were analyzed by SDS-PAGE gel. Confocal microscopy assays were performed as described (Ishikawa et al., 1998, J. Biol. Chem., 273:26991-26997). Briefly, 2 μM F-actin containing 10% rhodamine-phalloidin-labeled F-actin were mixed with different concentrations of rAFAP-110 or other purified recombinant proteins in 5 mM MgCl2, 1 mM EGTA, 2 mM ATP, and 50 mM KCl at RT for 30 min. After the incubation, the reactions were applied between glass slides and coverslips and observed under confocal microscopy (Zeiss, Oberkochen, Germany). Samples for negative staining were adsorbed to grids coated with nitrocellulose and stabilized with carbon (Ernest F. Fullam, Latham, N.Y.). Unbound protein was removed by successive washes with buffer and water before staining with 1% uranylacetate (Cooper and Pollard, 1982, Methods Enzymol., 85(PtB), 182-210; Pollard and Cooper, 1982, Methods Enzymol., 85(PtB), 211-233).
The purified rAFAP-110 was incubated with actin filaments. The negative staining image was taken at 16,000 magnification. Black arrows indicate rAFAP-110 aggregates; and white arrow indicates actin filaments. […] The electron micrographs indicate that rAFAP-110 binds to the sides of actin filaments, which was supported by the fact that one mole of actin in filaments bound up to 1.7 mol of rAFAP-110 (FIG. 7C). FIG. 7C is a graph of bound rAFAP-110 versus free rAFAP-110. rAFAP-110 at 0.18,0.29,0.70, 1.34,2.63,3.73,4.67, 5.11,5.34,5.48, and 5.66 μM was incubated with 2 μM concentration of G-actin polymerized into actin filaments and were then centrifuged at 150,000×g. Both supernatants (S) and pellets (P) were applied to SDS-PAGE gel, followed by Coomassie staining. Density of AFAP-110 determined by scanning densitometry was fit as described.

[3] = test system: actin filaments; assay: Low-speed cosedimentation assay (20,800×g), actin filament cross-linking; type: biochemical
Excerpt: as §1
Actin filaments are unable to efficiently pellet at 20,800×g unless cross-linked to form heavier particles (either isotropic networked or bundled actin filaments; Cooper and Pollard, 1982, supra; Pollard and Cooper, 1982, supra; Meyer et al., 1990, J. Cell. Biol. 110:2013-2024; Wachsstock et al., 1993, Biophys. J., 65: 205-214; Rybakova et al., 1996, J. Cell. Biol., 135:661-672). […] The purified recombinant proteins were incubated with actin filaments and then were centrifuged at 20,800×g. Both supernatants (S) and pellets (P) were applied to SDS-PAGE gel, followed by Coomassie staining. 1, rAFAP-110 with actin filaments; 2, rAFAP-110^Δcterm with actin filaments; 3, rAFAP-110 only; 4, rAFAP-110^Δcterm only; 5, actin filaments only. FIG. 8B is a graph of cross-linked actin filaments versus free rAFAP-110. rAFAP-110 at 0.05,0.11,0.21,0.43, 0.86, and 2.14 μM was incubated with the 2 μM concentration of G-actin polymerized into actin filaments. After the incubation, the reactions were centrifuged at 20,800×g. Both supernatants and pellets were applied to SDS-PAGE gel, followed by the Western blot analysis to detect rAFAP-110 and Coomassie blue staining to detect actin, respectively. The data of cross-linked actin filaments and free rAFA-110 were gathered by scanning densitometry of SDS-PAGE gel analysis.

[4] = test system: actin filaments; assay: Confocal microscopy of rhodamine-phalloidin-labeled actin filaments; type: biochemical
Excerpt: as §1
To further test AFAP-110's capability to cross-link actin filaments, we analyzed rhodamine-phalloidin-labeled actin filaments for cross-linking by confocal microscopy. In FIG. 9A, purified rAFAP-110 or rAFAP-110^Δcterm were incubated with rhodamine-phalloidin-labeled actin filaments. […] 1, actin filaments only; 2, rAFAP-110 with actin filaments; 3, rAFAP-110^Δcterm with actin filaments. FIG. 9B presents confocal microscopy images. Different concentrations of α-actinin (top two panels, low=0.0625 μM and high=1.25 μM) and rAFAP-110 (bottom two panels, low=0.106 μM and high=2.1 μM) were incubated with rhodamine-phalloidin-labeled actin filaments. […] Actin filaments labeled with rhodamine-phalloidin appeared uniformly fluorescent in the absence of an actin binding protein (FIG. 9A1). […] Electron microscopy was used to confirm rAFAP-110's ability to cross-link actin filaments.

[5] = least-squares fit to Hill equation, 2 μM F-actin, FIG. 7C
[6] = second experiment, Hill equation
[7] = least-squares fit to Hill equation, 2 μM actin, FIG. 8B

B1: rAFAP-110: Recombinant AFAP-110 purified after production as a GST bacterial fusion protein, using the PreScission Protease system (protein, UniProt Q90738 1-729, looked up)
Actin filament-associated …: MEELIVELRLFLELLDHEYLTSTVREKKAVITNILLRIQSSKGFEIKEHVQKPEVANSLPAPPQMPLPEIPQQWLPPDNGPPPLPTSSLPEGYYEEAVPVSPGKAPEYITSNYDSDAMSSSYESYDEEEEDGKGKKMRHQWPSEEASMDLVKDAKICAFLLRKKRFGQWTKLLCVIKENKLLCYKSSKDQQPQMELLLNDCSITYIPKDSKKKKHELKISHQGADALVLAVQSKEQAEQWLKVIKDVCSNCTGTVDSDGPLSSSPVHKTELEKKLSSERPSSDGEGAVENGITTVCNGKEQVKRKKSSKTEAKGTVTKVTGKKITKIIGLGKKKPSTDEQTSSAEEDVPTCGYLNVLSNNRWRERWCRVKDNKLIFHKDRTDLKTHIVSIPLRGCEVIPGLDSKHPLTFRLLRNGQEVAVLEASSSEDMGRWIGMLLAETGSSTDPGALHYDYIDVEMTASVIQAAKQTFCFMNRRVISTNPYRGSTANGYACPSGMALHYDDVPCINGSFKGKKPPATANGITGKVRTLNSQPKKPESVSCVKRTASNAEQYKYGKNRVEAVAKRLQSKEEELLKRKEALRNRLAQLRKERKDLRAAIEVNAGRKTQVILEDKLKKLEEECKTKEAERVNLELELTEVKESLKKALAGGITLGLAIEPKSGTSSPQSPIFKHRTLENSPISSCDTSDTECSIPVNSAAALKRPPSSNNSPCRGHVLRKAKEWEMKNGT
- phosphorylation by PKCα in vitro [1]: phosphorylates
- direct binding to actin filaments ([2]; 150,000×g for 1 h, FIG. 7A): bind to actin filaments directly
- rAFAP-110 bound per one mole of actin in filaments ([2]; FIG. 7C): up to 1.7 mol
- BMAX [2, 5]: 4.2 µM
- Kd [2, 5]: 0.29 µM
- BMAX [2, 6]: 1.5 µM
- Kd [2, 6]: 0.24 µM
- actin cross-linked and sedimented at saturation ([3]; 1.63 μM/2.0 μM total actin): 81.5%
- EC50 ([3]; 2 μM actin, FIG. 8B, read-out: half maximal cross-linking): 0.26 µM
- sedimentation of actin filaments at low speed ([3]; 20,800×g, FIG. 8A): efficiently sedimented
- BMAX (cross-linked actin filaments) [3, 7]: 1.63 µM
- n (Hill equation, cross-linking) [3, 7]: 1.7
- Kd ([3]; least-squares fit to Hill equation, 2 μM actin, FIG. 8B, read-out: Kd (cross-linked actin filaments versus free rAFAP-110)): 0.26 µM
- confocal fluorescence pattern of actin filaments ([4]; FIG. 9A, rAFAP-110 at 1.3 μM): organized into a lacy pattern of swollen and interconnected fluorescent tubes
- organization of actin filaments at low concentration ([4]; α-actinin 0.0625 μM, rAFAP-110 0.105 μM, FIG. 9B): did not change the organization of actin filaments
- organization of actin filaments at high concentration ([4]; α-actinin 1.25 μM, rAFAP-110 2.1 μM, FIG. 9B): caused some aggregation of actin filaments into large branched structures
